Results taken from patent publication US20260049105A1 (ARIZONA BOARD OF REGENTS ON BEHALF OF THE UNIVERSITY OF …, published 2026).

Legend:
[1] = biological target: human melanocortin 4 receptor (human, UniProt P32245 1-332); assay: cell-based or functional assay
[2] = biological target: T1, human melanocortin 1 receptor (human, UniProt Q01726 1-317); assay: cell-based or functional assay
[3] = biological target: T2, human melanocortin 3 receptor (human, UniProt P41968 1-323); assay: cell-based or functional assay
T2 sequence (P41968 whole entry): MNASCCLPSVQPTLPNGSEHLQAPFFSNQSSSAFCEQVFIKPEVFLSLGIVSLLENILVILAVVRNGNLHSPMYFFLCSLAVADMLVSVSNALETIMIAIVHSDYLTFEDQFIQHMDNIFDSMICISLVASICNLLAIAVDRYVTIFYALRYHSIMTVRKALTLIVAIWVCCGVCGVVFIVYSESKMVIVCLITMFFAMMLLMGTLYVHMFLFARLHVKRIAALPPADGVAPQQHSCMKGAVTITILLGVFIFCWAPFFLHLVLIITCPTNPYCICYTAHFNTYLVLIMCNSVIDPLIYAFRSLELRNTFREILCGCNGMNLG

[4] = biological target: human melanocortin 5 receptor (human, UniProt P33032 1-325); assay: cell-based or functional assay
Sequence of human melanocortin 5 receptor (P33032 whole entry): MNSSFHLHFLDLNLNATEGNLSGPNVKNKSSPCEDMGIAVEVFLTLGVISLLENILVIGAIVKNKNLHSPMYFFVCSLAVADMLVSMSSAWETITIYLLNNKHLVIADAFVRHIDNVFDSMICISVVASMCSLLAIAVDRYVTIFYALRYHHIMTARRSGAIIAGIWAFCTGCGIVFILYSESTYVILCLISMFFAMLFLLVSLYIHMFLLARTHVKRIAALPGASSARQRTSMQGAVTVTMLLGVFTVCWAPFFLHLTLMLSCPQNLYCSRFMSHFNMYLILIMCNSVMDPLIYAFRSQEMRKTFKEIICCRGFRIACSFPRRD

[5] = biological target: T1, human melanocortin 1 receptor; assay: competition with 125I-NDP-α-MSH, cells expressing hMC1R
[6] = biological target: T2, human melanocortin 3 receptor; assay: competition with 125I-NDP-α-MSH, cells expressing hMC3R

T1 sequence (Q01726 whole entry): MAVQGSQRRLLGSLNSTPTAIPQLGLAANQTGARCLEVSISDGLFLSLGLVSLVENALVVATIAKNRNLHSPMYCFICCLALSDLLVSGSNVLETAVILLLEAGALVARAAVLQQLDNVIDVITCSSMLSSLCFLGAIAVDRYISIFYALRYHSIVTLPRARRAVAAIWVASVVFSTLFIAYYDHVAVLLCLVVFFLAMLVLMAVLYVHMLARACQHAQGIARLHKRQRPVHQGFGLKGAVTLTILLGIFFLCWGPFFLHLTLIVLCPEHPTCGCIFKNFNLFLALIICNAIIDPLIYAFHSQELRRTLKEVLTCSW
Sequence of human melanocortin 4 receptor (P32245 whole entry): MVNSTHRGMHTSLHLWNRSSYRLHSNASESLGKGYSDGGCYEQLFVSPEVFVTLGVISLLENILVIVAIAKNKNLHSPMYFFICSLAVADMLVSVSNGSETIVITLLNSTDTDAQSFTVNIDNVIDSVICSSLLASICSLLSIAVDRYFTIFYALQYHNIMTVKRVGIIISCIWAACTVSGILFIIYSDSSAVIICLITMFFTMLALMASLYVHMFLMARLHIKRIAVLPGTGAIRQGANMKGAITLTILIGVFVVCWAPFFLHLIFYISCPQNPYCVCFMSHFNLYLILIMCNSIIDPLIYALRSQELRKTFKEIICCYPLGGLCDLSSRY

- EC50 (nM), cAMP accumulation [1]: > 1000 nM
- Act % [2]: 100%
- EC50 (nM), cAMP accumulation [2]: 340 nM
- Act % [3]: 59%
- EC50 (nM), cAMP accumulation [3]: > 1000 nM
- Act % [4]: 62%
- EC50 (nM), cAMP accumulation [4]: > 1000 nM
- IC50 [5]: 14 nM
- IC50 [6]: 59 nM
B1: Ac-Arg-cyclo[Asp-Pip-D-Phe(4-F)-βArg-Trp-Lys]-NH2 (peptide)
peptide: RDXFRWK
modifications: not fully specified; N-terminal acetyl (Ac); C-terminal amide (NH2); cyclized through the side chains of Asp2 and Lys7; Pip at 3; D-Phe(4-F) at 4; βArg at 5
notes: Synthetic cyclic peptide; also called compound 5; analogue 5
